Assay results published in patent US20230374088A1 (GENERAL HOSPITAL, published 2023).

T1: Gli2-ZF-SNAP (human, UniProt P10070 418-604, Alexa 647 dye on the SNAP tag in the TIRF assays)
T1 construct: Labeled with Alexa 647 for TIRF microscopy; used unlabeled (as far as told) for cryo-EM; also called Gli2-ZF-SNAP-Alexa 647; Gli2-ZF-Alexa 647; not shown: C-terminal SNAP tag
T1 sequence (looked up): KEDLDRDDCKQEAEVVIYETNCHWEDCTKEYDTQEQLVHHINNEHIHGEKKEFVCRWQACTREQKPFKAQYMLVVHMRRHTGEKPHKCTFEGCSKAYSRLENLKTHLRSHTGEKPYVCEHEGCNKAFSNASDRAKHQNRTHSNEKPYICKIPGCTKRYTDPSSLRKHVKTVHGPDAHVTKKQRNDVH

T2: GST-Kif7-CC (460-600aa) (human, UniProt Q2M1P5 460-600)
T2 construct: held on the BLI sensor through the GST tag; also called Kif7 coiled-coil domain; coiled-coil dimerization domain fragment of Kif7; not shown: N-terminal GST tag (HRV protease cleavable, modified pGEX vector)
T2 sequence: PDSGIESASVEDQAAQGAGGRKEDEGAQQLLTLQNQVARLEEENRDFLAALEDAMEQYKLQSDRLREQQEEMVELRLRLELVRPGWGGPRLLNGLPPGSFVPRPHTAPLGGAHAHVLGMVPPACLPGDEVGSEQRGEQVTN


Legend:
Gli2-ZF-SNAP [1] = molecular target: T1, Gli2-ZF-SNAP; assay: TIRF microscopy; 100 nM Gli2-ZF-SNAP-Alexa647 with 100 nM kinesin on microtubules
Source text: (§1) Briefly, fluorescently labeled (Rhodamine/HiLyte-647) and biotinylated microtubule seeds, polymerized with the non-hydrolyzable GTP analog GMPCPP, were immobilized on a glass coverslip through neutravidin-biotin linkages (FIG. 4A). GMPCPP was chosen as it mimics the GTP-form of tubulin present at microtubule ends (Jiang et al., Developmental cell, 49, 711-730. e8 2019). […] A Gli2 control was used to measure non-specific binding of Gli2-ZF to microtubules. Single molecule photobleaching of purified Kif7-DM confirmed that it is a dimer (FIGS. 11A-D).
To address which of the two Gli-interaction sites of Kif7 plays a role in modulating Kif7 microtubule binding, we generated two chimeric proteins where we swapped either the motor and neck-linker (M) or the coiled-coil (CC) domains of Kif7 and Kif27 (Kif7M-Kif27CC and Kif27M-Kif7CC) (FIG. 5E). […] The binding affinity for each of the two Gli interaction sites on Kif7-DM could be determined using BLI (FIG. 12H). We compared the two chimeras to Kif7-DM in TIRF microscopy-based microtubule binding assay. […] Next, we compared how the microtubule binding of the chimeras were regulated by Gli with respect to Kif7-DM.

Gli2-ZF-SNAP [2] = molecular target: T1, Gli2-ZF-SNAP; assay: TIRF microscopy; 100 nM Kif7-DM-GFP and 100 nM Alexa-647 labeled Gli2-ZF-SNAP on GMPCPP microtubules
Procedure: Rhodamine/HiLyte 647 labeled GMPCPP-stabilized microtubules (grey) were immobilized on a PEG-treated glass coverslip (yellow) via neutravidin-biotin linkages (blue & brown respectively). Kif7-DM-GFP (green), Gli2-ZF-SNAP-Alexa 647 (pink) and 1 mM ATP were subsequently added to examine binding of both proteins on microtubules. All proteins for TIRF microscopy assay were purified to >95% purity (FIGS. 11A & 11B). See also FIGS. 11C-11D.
as §1, with “To examine whether the Kif7-Gli interaction described above is sufficient for recruiting Gli to microtubules, we reconstituted Gli and Kif7 on microtubules and examined their activity using an in vitro TIRF microscopy assay. Briefly,” for “Briefly,”

[3] = molecular target: T3, GMPCPP-stabilized microtubules (porcine, UniProt P02554 1-445); assay: TIRF microscopy, GFP intensity on microtubules, no Gli2-ZF
T3 construct: Polymer of tubulin heterodimers; in TIRF partly labeled with X-rhodamine/HiLyte 647 and biotin; also called MT; GMPCPP-microtubule lattice
T3 sequence (P02554 whole entry): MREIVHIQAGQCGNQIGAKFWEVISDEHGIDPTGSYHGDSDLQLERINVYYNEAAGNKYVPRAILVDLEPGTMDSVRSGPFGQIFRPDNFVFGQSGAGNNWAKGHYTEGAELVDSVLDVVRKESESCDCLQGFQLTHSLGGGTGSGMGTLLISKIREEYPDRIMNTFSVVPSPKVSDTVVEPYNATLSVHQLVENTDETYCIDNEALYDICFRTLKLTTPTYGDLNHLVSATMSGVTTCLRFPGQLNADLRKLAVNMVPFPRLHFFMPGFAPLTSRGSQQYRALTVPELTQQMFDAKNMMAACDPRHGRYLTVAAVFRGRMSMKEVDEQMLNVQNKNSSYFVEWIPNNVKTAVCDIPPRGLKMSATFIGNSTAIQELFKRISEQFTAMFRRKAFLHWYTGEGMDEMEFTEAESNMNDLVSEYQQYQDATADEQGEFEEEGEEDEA

GST-Kif7-CC (460-600aa) = molecular target: T2, GST-Kif7-CC (460-600aa); assay: BLI association step, GST-Kif7-CC on the sensor, soluble truncation at 125 nM [panel C]
Procedure: Equilibrium dissociation constants Kd (shown in parenthesis) were determined by fitting complete binding curves to Hill equation (See FIG. 10C). See also FIGS. 10A, 10B & 10C. Data is representative trace of a minimum of three repeats.
BLI experiments were performed in an Octet Red 96 instrument (ForteBio). To quantify Kif7-Gli2 binding, Experiments were performed in an assay buffer containing 40 mM TRIS pH7.3, 40 mM KCl, 40 μM ATP 1 mM MgCl₂, 0.12% tween and 0.5 mM TCEP. In the simplest assay, dimeric GST-Kif7-CC at a concentration of 120 nM is immobilized on an anti-GST biosensor chip. Unbound Kif7 is washed away with buffer, and the chips are then dipped into buffer with a range of Gli2-ZF concentrations from 0-1 μM to allow for association of the two proteins. After 300 seconds, they are then moved back into a well with just buffer to allow dissociation for 400 seconds. The equilibrium response of each sensor from three independent repeats at each Gli2 concentration were normalized and plotted against Gli2 concentration and fitted with a Hill function to obtain a Kₜ. […] The assays were also performed with HIS-tagged Kif7-DM and the Kif7-Kif27 chimeric proteins, requiring the use of an anti-penta-HIS biosensor chip, and referencing sensors to account for non-specific binding of Gli2 to the HIS sensor. A flipped assay, using HIS-tagged Gli2 on the sensor and a range of Kif7 concentrations in buffer, was also conducted.

Binder | fold Gli2-ZF Alexa-647 intensity on microtubules over Gli2 alone (Gli2-ZF-SNAP [1]) [fold] | fold increase over background of Gli2 intensity on microtubules (Gli2-ZF-SNAP [2]) [fold] | fold decrease in Gli recruitment on microtubules compared to Kif7-DM (Alexa-647 intensity per GFP intensity) (Gli2-ZF-SNAP [1]) [fold] | fold binding to microtubules compared to Kif7-DM (GFP intensity) [3] [fold] | binding result (GST-Kif7-CC (460-600aa))
Kif7-DM-GFP (1-543aa) (other, Dimer; Used in TIRF, size exclusion and BLI (HIS-tagged, anti-penta-HIS sensor); also called GFP-tagged recombinant dimeric Kif7 protein; GFP-tagged Kif7-DM; not shown: TEV-cleavable N-terminal 6xHis tag and SUMOstar tag; His tag on in the BLI assay, state in other a; GFP tag, C-terminal by the name) MGLEAQRLPGAEEAPVRVALRVRPLLPKELLHGHQSCLQVEPGLGRVTLGRDRHFGFHVVLAEDAGQEAVYQACVQPLLEAFFEGFNATVFAYGQTGSGKTYTMGEASVASLLEDEQGIVPRAMAEAFKLIDENDLLDCLVHVSYLEVYKEEFRDLLEVGTASRDIQLREDERGNVVLCGVKEVDVEGLDEVLSLLEMGNAARHTGATHLNHLSSRSHTVFTVTLEQRGRAPSRLPRPAPGQLLVSKFHFVDLAGSERVLKTGSTGERLKESIQINSSLLALGNVISALGDPQRRGSHIPYRDSKITRILKDSLGGNAKTVMIACVSPSSSDFDETLNTLNYASRAQNIRNRATVNWRPEAERPPEETASGARGPPRHRSETRIIHRGRRAPGPATASAAAAMRLGAECARYRACTDAAYSLLRELQAEPGLPGAAARKVRDWLCAVEGERSALSSASGPDSGIESASVEDQAAQGAGGRKEDEGAQQLLTLQNQVARLEEENRDFLAALEDAMEQYKLQSDRLREQQEEMVELRLRLELVRP | ~9 | 3 |  |  | 
Kif27M-Kif7CC chimera (other, human, range 1-475; not shown: HIS tag (used for BLI); GFP tag) MEEIPVKVAVRIRPLLCKEALHNHQVCVRVIPNSQQVIIGRDRVFTFDFVFGKNSTQDEVYNTCIKPLVLSLIEGYNATVFAYGQTGSGKTYTIGGGHIASVVEGQKGIIPRAIQEIFQSISEHPSIDFNVKVSYIEVYKEDLRDLLELETSMKDLHIREDEKGNTVIVGAKECHVESAGEVMSLLEMGNAARHTGTTQMNEHSSRSHAIFTISICQVHKNMEAAEDGSWYSPRHIVSKFHFVDLAGSERVTKTGNTGERFKESIQINSGLLALGNVISALGDPRRKSSHIPYRDAKITRLLKDSLGGSAKTVMITCVSPSSSNFDESLNSLKYANRARNIRNKPTVNFSPESDRIDEMEFEIKLLREALQSQQAGVSQTTQINREGSPDTNRIHSLEEQVAQLQGECLGYQCCVEEAFTFLVDLKDTVRLNEKQQHKLQEWFNMIQEVRKAVLTSFRGIGGTASLEEGPQHVTVPDSGIESASVEDQAAQGAGGRKEDEGAQQLLTLQNQVARLEEENRDFLAALEDAMEQYKLQSDRLREQQEEMVELRLRLELVRPGWGGPRLLNGLPPGSFVPRPHTAPLGGAHAHVLGMVPPACLPGDEVGSEQRGEQVTN |  |  | 2 | ~3 | 
ZF1-2 (418-497) (other, human, UniProt P10070 418-497, looked up, One of the three truncations of the group m9; also called Gli2-ZF truncation ZF1-2) Gli2 zinc-finger truncation: KEDLDRDDCKQEAEVVIYETNCHWEDCTKEYDTQEQLVHHINNEHIHGEKKEFVCRWQACTREQKPFKAQYMLVVHMRRH |  |  |  |  | no binding (tested: 125 nM)
Kif7M-Kif27CC chimera (other, human, range 475-570; not shown: HIS tag (used for BLI); GFP tag) MGLEAQRLPGAEEAPVRVALRVRPLLPKELLHGHQSCLQVEPGLGRVTLGRDRHFGFHVVLAEDAGQEAVYQACVQPLLEAFFEGFNATVFAYGQTGSGKTYTMGEASVASLLEDEQGIVPRAMAEAFKLIDENDLLDCLVHVSYLEVYKEEFRDLLEVGTASRDIQLREDERGNVVLCGVKEVDVEGLDEVLSLLEMGNAARHTGATHLNHLSSRSHTVFTVTLEQRGRAPSRLPRPAPGQLLVSKFHFVDLAGSERVLKTGSTGERLKESIQINSSLLALGNVISALGDPQRRGSHIPYRDSKITRILKDSLGGNAKTVMIACVSPSSSDFDETLNTLNYASRAQNIRNRATVNWRPEAERPPEETASGARGPPRHRSETRIIHRGRRAPGPATASAAAAMRLGAECARYRACTDAAYSLLRELQAEPGLPGAAARKVRDWLCAVEGERSALSSASGPDSVLQLKRELKKCQCVLAADEVVFNQKELEVKELKNQVQMMVQENKGHAVSLKEAQKVNRLQNEKIIEQQLLVDQLSEELTKLNLSVTSSAKENCGDG |  |  | 3 | ~10 | 
